Laboratory results from US20150299268A1 (UNIVERSITY OF MARYLAND BALTIMORE, published 2015).

Key:
[1] = target: gp120-b12-ScFV; assay: ELISA
[2] = target: gp120-JR4-ScFV; assay: ELISA
[3] = target: gp120-JR48.1-ScFV; assay: ELISA
[4] = target: gp120-VRC01-ScFV; assay: ELISA
[5] = target: T1, BaL-gp120 (HIV-1 BaL); assay: ELISA
T1 construct: domain: gp120; also called monomeric gp120; monomeric BaL gp120

[6] = target: T2, FLSC R/T (HIV-1, UniProt P01730 26-208); assay: ELISA
T2 construct: not shown: linker of FLSC not described

[7] = target: T3, FLSC (HIV-1, UniProt P01730 26-208); assay: capture ELISA
T3 construct: not shown: linker of FLSC not described

[8] = target: T4, BaL-gp120-R58AK59A (HIV-1 BaL); assay: capture ELISA
T4 construct: domain: gp120

[9] = target: T5, BaL-gp120-D57AD62A (HIV-1 BaL); assay: capture ELISA
T5 construct: domain: gp120

[10] = target: T6, BaL-gp120-D368R (HIV-1 BaL); assay: capture ELISA
T6 construct: domain: gp120

[11] = target: T7, BaL-gp120-D62A (HIV-1 BaL); assay: capture ELISA
T7 construct: domain: gp120

[12] = target: T8, BaL-gp120-G495A (HIV-1 BaL); assay: capture ELISA
T8 construct: domain: gp120

[13] = target: T9, BaL-gp120-E492A (HIV-1 BaL); assay: capture ELISA
T9 construct: domain: gp120

[14] = target: T10, BaL-gp120-P493A (HIV-1 BaL); assay: capture ELISA
T10 construct: domain: gp120

[15] = target: T11, BaL-gp120-D78A (HIV-1 BaL); assay: capture ELISA
T11 construct: domain: gp120

[16] = target: T12, BaL-gp120-K46A (HIV-1 BaL); assay: capture ELISA
T12 construct: domain: gp120

[17] = target: T13, BaL-gp120-H105A (HIV-1 BaL); assay: capture ELISA
T13 construct: domain: gp120

[18] = target: T14, BaL-gp120-E32A (HIV-1 BaL); assay: capture ELISA
T14 construct: domain: gp120

[19] = target: T15, BaL-gp120-T499A (HIV-1 BaL); assay: capture ELISA
T15 construct: domain: gp120

[20] = target: T1, BaL-gp120; assay: capture ELISA
[21] = target: T16, BaL-gp120-P498A (HIV-1 BaL); assay: capture ELISA
T16 construct: domain: gp120

[22] = target: T17, BaL-gp120-T455A (HIV-1 BaL); assay: capture ELISA
T17 construct: domain: gp120

[23] = target: T18, BaL-gp120-W35A (HIV-1 BaL); assay: capture ELISA
T18 construct: domain: gp120

B1: N60-B1.1 (antibody, V domains shown)
VH: QLQLQESGPGLVKPSGTLSLTCSVSGGSMNGRNIYWAWIRQTPGKGLEWIGSVDVSDEDAGRTFYKWPIKSRASISADTSKNQFSLKLSSVTVADTGVYYCARETLYYVGNGYYYPLDVFYYNYYMDVWGKGTTVSVSS
VL: not shown
notes: also called bnAb N60-B1.1
Fold of Ab needed for ELISA binding OD equal to half max on gp120 [1]: 0.01 fold | Fold of Ab needed for ELISA binding OD equal to half max on gp120 [2]: 0.04 fold | Fold of Ab needed for ELISA binding OD equal to half max on gp120 [3]: 0.14 fold | Fold of Ab needed for ELISA binding OD equal to half max on gp120 [4]: 0.03 fold | Fold of Ab needed for ELISA binding OD equal to half max on gp120 [5]: 1 fold | Fold of Ab needed for ELISA binding OD equal to half max on gp120 [6]: 16.4 fold | % Binding [7]: 10% | % Binding [8]: 92% | % Binding [9]: 76% | % Binding [10]: 99% | % Binding [11]: 80% | % Binding [12]: 106% | % Binding [13]: 113% | % Binding [14]: 92% | % Binding [15]: 108% | % Binding [16]: 50% | % Binding [17]: 88% | % Binding [18]: 108% | % Binding [19]: 102% | % Binding [20]: 100% | % Binding [21]: 101% | % Binding [22]: 73% | % Binding [23]: 132%
